# Laboratory results taken from the supplement of paper PMC10065799, “High-throughput profiling of sequence recognition by tyrosine kinases and SH2 domains using bacterial peptide display” (eLife, 2023).
# How the values were obtained:
# AncSZ = experiment: phosphorylation enrichment, bacterial display (enrichment ratio); higher = better substrate or ligand; peptides without Tyr show the background
# EPHB1 = EPHB1 (UniProt P54762); experiment: as above
# EPHB2 = EPHB2 (UniProt P29323); experiment: as above
# Chain of EPHB2 (P29323 whole entry, looked up): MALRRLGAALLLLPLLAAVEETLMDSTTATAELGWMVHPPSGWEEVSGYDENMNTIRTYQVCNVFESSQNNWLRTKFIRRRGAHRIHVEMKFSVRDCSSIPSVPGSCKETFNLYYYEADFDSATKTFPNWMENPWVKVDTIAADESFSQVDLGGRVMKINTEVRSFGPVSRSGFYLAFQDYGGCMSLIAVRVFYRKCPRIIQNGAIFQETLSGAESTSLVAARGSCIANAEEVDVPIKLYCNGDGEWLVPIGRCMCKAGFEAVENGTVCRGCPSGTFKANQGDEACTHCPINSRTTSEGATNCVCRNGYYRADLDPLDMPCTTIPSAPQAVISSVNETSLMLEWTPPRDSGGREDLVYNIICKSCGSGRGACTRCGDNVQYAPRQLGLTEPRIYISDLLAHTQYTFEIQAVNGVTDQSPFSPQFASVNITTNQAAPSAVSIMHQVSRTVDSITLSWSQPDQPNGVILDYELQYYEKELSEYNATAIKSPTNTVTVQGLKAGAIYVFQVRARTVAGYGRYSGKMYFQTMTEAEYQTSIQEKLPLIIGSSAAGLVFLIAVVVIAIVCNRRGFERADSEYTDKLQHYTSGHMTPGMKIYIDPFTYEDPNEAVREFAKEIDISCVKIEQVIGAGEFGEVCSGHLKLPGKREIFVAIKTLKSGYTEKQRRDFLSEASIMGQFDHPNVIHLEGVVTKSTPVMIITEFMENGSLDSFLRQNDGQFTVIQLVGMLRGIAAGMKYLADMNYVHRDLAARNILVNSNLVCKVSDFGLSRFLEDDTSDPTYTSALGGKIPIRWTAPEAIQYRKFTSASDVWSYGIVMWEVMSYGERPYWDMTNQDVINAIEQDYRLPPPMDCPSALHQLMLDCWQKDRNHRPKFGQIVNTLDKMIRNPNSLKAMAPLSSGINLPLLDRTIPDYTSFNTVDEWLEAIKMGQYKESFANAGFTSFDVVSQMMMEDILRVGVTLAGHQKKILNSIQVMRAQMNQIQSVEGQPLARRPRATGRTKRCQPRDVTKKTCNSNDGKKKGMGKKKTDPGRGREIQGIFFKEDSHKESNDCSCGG
# FGFR1 = FGFR1 (UniProt P11362); experiment: as above
# Chain of FGFR1 (P11362 whole entry, looked up): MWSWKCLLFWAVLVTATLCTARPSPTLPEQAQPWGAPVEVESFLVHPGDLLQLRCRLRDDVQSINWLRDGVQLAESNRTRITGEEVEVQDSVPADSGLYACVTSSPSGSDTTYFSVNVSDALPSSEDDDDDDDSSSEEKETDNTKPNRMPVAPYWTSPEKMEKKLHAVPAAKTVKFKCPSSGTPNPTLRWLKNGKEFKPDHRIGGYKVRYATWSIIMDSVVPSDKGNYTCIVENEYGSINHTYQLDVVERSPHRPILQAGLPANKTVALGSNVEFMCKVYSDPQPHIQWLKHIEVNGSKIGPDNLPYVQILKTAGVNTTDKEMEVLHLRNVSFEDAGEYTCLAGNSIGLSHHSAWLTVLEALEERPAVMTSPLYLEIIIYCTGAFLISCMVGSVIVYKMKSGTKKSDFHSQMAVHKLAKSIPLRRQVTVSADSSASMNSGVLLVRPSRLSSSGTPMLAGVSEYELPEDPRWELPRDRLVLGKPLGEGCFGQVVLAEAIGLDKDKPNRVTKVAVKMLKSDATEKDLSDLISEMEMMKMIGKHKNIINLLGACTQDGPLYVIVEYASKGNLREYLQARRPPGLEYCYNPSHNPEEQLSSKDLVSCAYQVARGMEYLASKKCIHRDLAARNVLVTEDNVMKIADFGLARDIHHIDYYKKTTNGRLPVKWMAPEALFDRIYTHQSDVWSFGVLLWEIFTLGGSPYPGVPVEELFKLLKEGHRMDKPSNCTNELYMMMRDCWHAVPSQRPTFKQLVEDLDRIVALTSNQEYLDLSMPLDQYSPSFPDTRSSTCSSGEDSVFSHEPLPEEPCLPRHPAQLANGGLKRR
# FGFR3 = FGFR3 (UniProt P22607); experiment: as above
# Fer (mouse) = experiment: as above
# Fes = Fes (UniProt P07332); experiment: as above
# Chain of Fes (P07332 whole entry, looked up): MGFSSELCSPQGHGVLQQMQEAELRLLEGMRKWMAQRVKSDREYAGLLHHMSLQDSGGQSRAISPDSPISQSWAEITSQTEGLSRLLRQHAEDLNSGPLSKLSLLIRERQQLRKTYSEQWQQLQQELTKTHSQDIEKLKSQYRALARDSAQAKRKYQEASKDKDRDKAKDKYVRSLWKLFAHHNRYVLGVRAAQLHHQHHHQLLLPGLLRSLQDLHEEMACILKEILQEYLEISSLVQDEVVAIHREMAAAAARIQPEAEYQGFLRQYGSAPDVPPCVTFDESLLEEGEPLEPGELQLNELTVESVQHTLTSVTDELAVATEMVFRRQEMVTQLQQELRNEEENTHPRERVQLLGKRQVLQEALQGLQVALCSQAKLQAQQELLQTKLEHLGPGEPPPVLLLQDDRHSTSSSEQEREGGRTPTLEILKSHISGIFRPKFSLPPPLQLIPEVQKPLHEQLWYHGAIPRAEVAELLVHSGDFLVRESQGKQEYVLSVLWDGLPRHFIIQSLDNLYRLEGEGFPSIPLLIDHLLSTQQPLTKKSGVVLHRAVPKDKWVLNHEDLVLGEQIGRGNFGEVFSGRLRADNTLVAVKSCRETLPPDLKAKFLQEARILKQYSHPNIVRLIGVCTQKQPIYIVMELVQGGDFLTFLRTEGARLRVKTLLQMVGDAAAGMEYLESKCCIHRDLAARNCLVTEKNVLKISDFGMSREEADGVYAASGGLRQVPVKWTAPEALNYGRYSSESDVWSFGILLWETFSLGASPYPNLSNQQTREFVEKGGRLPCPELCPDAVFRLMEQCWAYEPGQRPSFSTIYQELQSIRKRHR
# Fyn = Fyn (UniProt P06241); experiment: as above
# Chain of Fyn (P06241 whole entry, looked up): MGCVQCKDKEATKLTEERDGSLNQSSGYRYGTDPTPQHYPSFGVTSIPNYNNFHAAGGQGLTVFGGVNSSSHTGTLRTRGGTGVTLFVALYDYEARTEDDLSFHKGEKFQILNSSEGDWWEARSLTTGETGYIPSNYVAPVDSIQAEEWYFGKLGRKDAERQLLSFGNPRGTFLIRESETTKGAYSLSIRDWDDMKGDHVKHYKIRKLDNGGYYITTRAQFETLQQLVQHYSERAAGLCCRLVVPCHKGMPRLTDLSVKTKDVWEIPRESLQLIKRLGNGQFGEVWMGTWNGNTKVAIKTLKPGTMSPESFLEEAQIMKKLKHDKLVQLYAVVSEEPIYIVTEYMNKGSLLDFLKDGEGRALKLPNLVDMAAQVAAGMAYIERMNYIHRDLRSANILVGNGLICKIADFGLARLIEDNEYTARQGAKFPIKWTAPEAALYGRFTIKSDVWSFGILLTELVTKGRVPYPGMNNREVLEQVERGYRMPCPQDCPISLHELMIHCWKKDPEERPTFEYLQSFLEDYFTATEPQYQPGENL
# Hck = Hck (UniProt P08631); experiment: as above
# Chain of Hck (P08631 whole entry, looked up): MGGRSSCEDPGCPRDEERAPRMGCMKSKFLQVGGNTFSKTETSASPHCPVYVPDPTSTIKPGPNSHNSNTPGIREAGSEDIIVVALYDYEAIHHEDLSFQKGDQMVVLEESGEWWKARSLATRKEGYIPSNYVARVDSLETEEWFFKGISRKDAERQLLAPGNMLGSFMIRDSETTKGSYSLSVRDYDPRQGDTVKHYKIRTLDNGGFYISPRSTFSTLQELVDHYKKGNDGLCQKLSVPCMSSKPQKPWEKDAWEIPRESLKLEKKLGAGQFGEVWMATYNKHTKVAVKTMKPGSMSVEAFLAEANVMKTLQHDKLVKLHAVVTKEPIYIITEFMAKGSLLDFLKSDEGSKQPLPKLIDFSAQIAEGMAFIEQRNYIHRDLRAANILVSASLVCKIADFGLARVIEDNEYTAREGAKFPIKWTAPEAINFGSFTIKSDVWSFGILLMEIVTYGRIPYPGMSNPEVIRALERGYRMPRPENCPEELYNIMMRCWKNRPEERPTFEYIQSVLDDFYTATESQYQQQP
# Jak2 = Jak2 (UniProt O60674); experiment: as above
# Chain of Jak2 (O60674 whole entry, looked up): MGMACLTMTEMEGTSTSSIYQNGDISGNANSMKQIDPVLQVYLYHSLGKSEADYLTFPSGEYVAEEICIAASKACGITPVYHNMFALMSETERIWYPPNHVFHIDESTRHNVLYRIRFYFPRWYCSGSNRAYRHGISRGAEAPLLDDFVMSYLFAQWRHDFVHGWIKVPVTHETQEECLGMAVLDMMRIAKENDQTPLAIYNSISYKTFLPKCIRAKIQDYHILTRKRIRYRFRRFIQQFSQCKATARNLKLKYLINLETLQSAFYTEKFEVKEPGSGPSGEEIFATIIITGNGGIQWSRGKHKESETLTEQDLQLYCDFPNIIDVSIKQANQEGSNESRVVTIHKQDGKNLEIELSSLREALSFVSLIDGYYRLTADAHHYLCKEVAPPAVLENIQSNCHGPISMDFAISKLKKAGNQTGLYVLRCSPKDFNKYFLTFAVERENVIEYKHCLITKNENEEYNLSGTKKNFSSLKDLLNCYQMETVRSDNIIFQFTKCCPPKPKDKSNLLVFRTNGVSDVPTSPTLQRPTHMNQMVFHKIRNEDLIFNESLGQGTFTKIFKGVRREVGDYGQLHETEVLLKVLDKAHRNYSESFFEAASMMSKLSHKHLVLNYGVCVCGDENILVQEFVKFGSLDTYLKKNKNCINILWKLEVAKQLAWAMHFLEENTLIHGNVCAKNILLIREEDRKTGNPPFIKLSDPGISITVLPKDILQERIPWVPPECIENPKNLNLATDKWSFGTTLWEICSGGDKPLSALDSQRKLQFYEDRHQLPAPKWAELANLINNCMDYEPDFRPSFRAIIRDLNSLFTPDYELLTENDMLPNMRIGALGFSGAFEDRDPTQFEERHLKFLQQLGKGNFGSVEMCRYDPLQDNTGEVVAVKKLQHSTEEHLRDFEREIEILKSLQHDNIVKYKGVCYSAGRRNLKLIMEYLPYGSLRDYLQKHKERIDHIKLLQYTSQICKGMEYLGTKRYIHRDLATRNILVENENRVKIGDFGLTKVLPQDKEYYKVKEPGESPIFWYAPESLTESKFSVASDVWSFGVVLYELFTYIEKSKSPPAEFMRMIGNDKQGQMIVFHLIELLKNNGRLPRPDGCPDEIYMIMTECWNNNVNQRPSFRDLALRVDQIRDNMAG
# MERTK = MERTK (UniProt Q12866); experiment: as above
# c-Abl (mouse) = experiment: as above
# c-Src = experiment: as above
# Grb2 SH2 = Grb2 SH2 (UniProt P62993); experiment: SH2 binding enrichment of the phosphorylated peptide, bacterial display (enrichment ratio); higher = better substrate or ligand; peptides without Tyr show the background
# SHP2-C SH2 = experiment: as above
# c-Src SH2 = experiment: as above
# 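Wherever SH2 binding enrichment of the phosphorylated peptide, bacterial display is given: peptide library displayed on the E. coli surface as eCPX fusions, selected cells deep-sequenced, score is each peptide's frequency after selection divided by its frequency in the input.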
# 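Wherever phosphorylation enrichment, bacterial display is given: 11-residue human phosphosite peptides and single-mutation variants displayed on the E. coli surface, counted by deep sequencing, each peptide's frequency after selection divided by its frequency in the unselected input library; frequency after pTyr selection over input frequency; kinase dosed for 20-30% of maximal phosphorylation in three min.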
SH2 binding enrichment (Grb2 SH2),SH2 binding enrichment (SHP2-C SH2),SH2 binding enrichment (c-Src SH2),Sequence,phosphorylation enrichment (AncSZ),phosphorylation enrichment (EPHB1),phosphorylation enrichment (EPHB2),phosphorylation enrichment (FGFR1),phosphorylation enrichment (FGFR3),phosphorylation enrichment (Fer (mouse)),phosphorylation enrichment (Fes),phosphorylation enrichment (Fyn),phosphorylation enrichment (Hck),phosphorylation enrichment (Jak2),phosphorylation enrichment (MERTK),phosphorylation enrichment (c-Abl (mouse)),phosphorylation enrichment (c-Src)
1.02,0.748,0.662,LTTPTYGDLNH [TUBB_Y222],1.41,1.14,1.44,1.03,1.11,1.07,1.47,5.58,4.7,0.84,0.836,0.702,3.12
1.09,0.755,0.752,ARVDTYCRHNY [HLA-DRB1_Y107_A103R],0.825,0.6,0.583,0.582,0.698,0.812,1.09,0.552,0.502,0.798,0.538,0.797,0.468
1.01,0.825,0.66,MANFVYKAGPS [MAML2_Y515_M514V_YF],0.681,0.436,0.553,0.517,0.469,0.39,0.65,0.423,0.499,0.477,0.371,0.417,0.365
4.61,1.36,2.08,MSSLYYANALF [HOXB7_Y6_T9A],1.04,7.33,8.29,5.32,4.83,5.14,1.04,4.93,6.04,2.94,10.7,3.44,4.88
1.16,1.01,0.716,GEEIKYMLWLL [OTC_Y55_S60L],1,0.722,0.554,0.752,0.975,1.88,1.55,0.5,0.663,0.912,1.58,0.77,0.544
0.746,0.623,0.436,ECKLFYSRKEG [PTPN11_Y263_L262F],1.08,0.502,0.451,0.457,0.602,0.445,1,0.401,0.626,0.685,0.515,0.768,0.465
0.994,0.674,0.466,EASGIYVKSII [PATJ_Y396],1.02,0.543,0.535,0.523,0.659,0.492,1.13,0.429,0.52,0.983,0.438,0.677,0.458
1.08,0.509,0.461,ILNANYMAKRL [GLDC_Y839],0.476,0.334,0.363,0.368,0.412,0.458,0.514,0.412,0.366,0.436,0.446,0.394,0.34
0.889,0.932,0.676,IFGASYVPFAA [RBM47_Y541_YF],0.775,0.432,0.53,0.589,0.636,0.542,0.783,0.609,0.92,1.27,0.71,0.496,1
0.797,0.616,0.435,EDKFMYLEFPQ [PTEN_Y240_F241L],1.71,0.879,0.756,2.44,2.26,0.673,1.34,0.889,1.01,1.38,0.664,1.14,1.2
0.891,0.721,0.494,TALFIYIRPKA [OR10C1_Y258],1.23,0.406,0.697,0.556,0.712,0.508,1.22,0.55,0.523,0.945,0.388,0.624,0.304
1,0.92,0.589,TLEKFYFAFPG [SLC1A1_Y51],1.53,1.98,2.85,8.55,6.62,0.496,1.18,1.9,1.62,3.54,7.49,7.49,3.75
0.849,0.821,0.431,FAADFYKLLGN [ROR2_Y646_YF],1.02,0.474,0.512,0.365,0.66,0.366,1.01,0.366,0.484,1.16,0.438,0.738,0.524
0.697,1.65,0.567,SHISGYATLRR [RAPH1_Y1226],0.941,0.374,0.391,0.392,0.562,0.399,0.753,0.392,0.4,0.628,0.438,0.43,0.382
0.72,0.766,0.448,NLPGGYSGSVK [MCPH1_Y606],0.595,0.407,0.455,0.374,0.425,0.375,0.652,0.484,0.447,0.618,0.371,0.747,0.46
0.838,0.776,0.511,SVMAEYGLYAA [VSX2_Y219_G223A],0.997,3.29,8.04,0.654,0.632,5.85,0.798,7.34,7.6,0.579,2.4,0.799,5.12

SH2 binding enrichment (Grb2 SH2),SH2 binding enrichment (SHP2-C SH2),SH2 binding enrichment (c-Src SH2),Sequence,phosphorylation enrichment (AncSZ),phosphorylation enrichment (EPHB1),phosphorylation enrichment (EPHB2),phosphorylation enrichment (FGFR1),phosphorylation enrichment (FGFR3),phosphorylation enrichment (Fer (mouse)),phosphorylation enrichment (Fes),phosphorylation enrichment (Fyn),phosphorylation enrichment (Hck),phosphorylation enrichment (Jak2),phosphorylation enrichment (MERTK),phosphorylation enrichment (c-Abl (mouse)),phosphorylation enrichment (c-Src)
0.941,0.831,0.514,EDKSIYRRGAC [PRKCI_Y125_R130C],0.496,0.34,0.429,0.42,0.495,0.35,0.705,0.375,0.405,0.532,0.406,0.474,0.315
0.784,0.487,0.43,AGIENYKSRFG [NKD2_Y256_T257K],0.578,0.451,0.377,0.357,0.452,0.409,0.486,0.356,0.517,0.537,0.412,0.512,0.363
0.923,0.804,0.639,RSAGKYDVYFI [MECP2_Y120_L124F],1.09,0.691,0.467,0.535,0.484,0.464,1.34,5.26,4.46,0.925,1.02,0.923,3.15
0.816,0.447,0.556,GADDSYYTARS [ZAP70_Y492],1,0.488,0.517,0.551,0.652,0.482,1.05,0.594,0.737,1,0.43,0.938,0.742
0.798,0.574,0.573,MEFLPYGSLRD [JAK2_Y934_YF],0.857,0.571,0.451,0.441,0.615,0.832,1.56,1.64,2.29,0.798,0.388,0.692,2.6
0.885,0.764,0.428,VFSSDYFSFVL [USP24_Y2138_YF],2.28,1.73,1.03,8.46,6.6,0.681,1.34,2.61,1.24,4.95,1.65,1.93,4.09
0.665,0.519,0.316,EFSNQYKATIG [RAB7A_Y37_K32E],0.455,0.411,0.413,0.405,0.474,0.442,0.559,0.339,0.446,0.52,0.342,0.524,0.311
0.771,0.666,0.527,FMCKVYSDRQP [FGFR1_Y280_P283R],1.52,0.577,0.577,0.494,0.808,0.587,1.54,0.544,0.582,1.35,0.463,0.879,0.634
0.915,0.66,0.382,NDFGNYNQQPS [HNRNPA2B1_Y306],0.764,0.691,0.604,0.589,0.493,0.472,0.85,0.596,0.504,0.788,0.478,0.74,0.505
0.982,0.707,0.422,GPRKAYELSQR [SETX_Y1297],0.464,0.343,0.328,0.422,0.355,0.381,0.539,0.401,0.389,0.558,0.409,0.492,0.412
0.987,0.645,0.632,TPGPNYCPGFN [USH2A_Y463_R464C_YF],0.334,0.499,0.254,0.515,0.35,0.557,0.643,0.578,0.333,0.662,0.507,0.643,0.944
2.01,2.02,1.93,CTTIHFNFMCN [TP53_Y234_Y234F_YF],1.07,0.604,0.656,0.614,0.83,0.569,1.31,0.484,0.582,1.33,0.525,0.824,0.507
0.884,0.636,0.433,TLLERYGMTKI [ACSF3_Y355_E359K],0.751,0.531,0.594,0.513,0.667,0.374,0.734,0.484,0.478,0.625,0.407,0.728,0.43
0.892,0.923,0.402,FKPENYRRLDI [VHL_Y175_V170F],0.599,0.367,0.425,0.414,0.544,0.376,0.738,0.32,0.383,0.747,0.41,0.63,0.312
1.1,0.823,0.796,LRLSSYSTTIR [CYP7B1_Y365],1.41,0.674,0.708,0.655,0.756,0.524,1.1,0.687,0.615,0.936,0.686,0.676,0.658
0.794,0.649,0.532,KDDEKYLDVSR [MTM1_Y260_I264S],0.951,0.521,0.556,0.473,0.655,0.442,1.09,0.456,0.457,0.973,0.423,0.824,0.433

Sequence,SH2 binding enrichment (Grb2 SH2),SH2 binding enrichment (SHP2-C SH2),SH2 binding enrichment (c-Src SH2),phosphorylation enrichment (AncSZ),phosphorylation enrichment (EPHB1),phosphorylation enrichment (EPHB2),phosphorylation enrichment (FGFR1),phosphorylation enrichment (FGFR3),phosphorylation enrichment (Fer (mouse)),phosphorylation enrichment (Fes),phosphorylation enrichment (Fyn),phosphorylation enrichment (Hck),phosphorylation enrichment (Jak2),phosphorylation enrichment (MERTK),phosphorylation enrichment (c-Abl (mouse)),phosphorylation enrichment (c-Src)
SIKDKYVTALY [KCNH2_Y611],0.747,0.581,0.437,0.639,0.463,0.403,0.387,0.472,0.389,0.72,0.489,0.785,0.597,0.506,0.507,0.575
